This experiment deals with T1, human C1q (human, UniProt P02745 23-245; P02746 28-253; P02747 29-245).
T1 construct: Bought protein; also called first component of the classical complement cascade
The experiment is described as follows: ELISA, antibody coated, C1q detected with rabbit anti-human C1q. (An ELISA detects its analyte on a solid surface through an enzyme-linked reagent.)

We go through one molecule from US20110045007A1 (Genmab, published 2011).

T1 sequence (P02745 23-245 limits assumed, chain 1 of 3): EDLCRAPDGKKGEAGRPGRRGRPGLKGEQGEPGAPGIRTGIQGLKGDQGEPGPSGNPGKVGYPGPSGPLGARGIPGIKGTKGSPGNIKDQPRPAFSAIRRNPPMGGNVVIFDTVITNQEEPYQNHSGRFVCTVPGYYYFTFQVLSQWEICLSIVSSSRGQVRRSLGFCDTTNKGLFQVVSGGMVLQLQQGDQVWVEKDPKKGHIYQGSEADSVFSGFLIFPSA
T1 sequence (P02746 28-253 limits assumed, chain 2 of 3): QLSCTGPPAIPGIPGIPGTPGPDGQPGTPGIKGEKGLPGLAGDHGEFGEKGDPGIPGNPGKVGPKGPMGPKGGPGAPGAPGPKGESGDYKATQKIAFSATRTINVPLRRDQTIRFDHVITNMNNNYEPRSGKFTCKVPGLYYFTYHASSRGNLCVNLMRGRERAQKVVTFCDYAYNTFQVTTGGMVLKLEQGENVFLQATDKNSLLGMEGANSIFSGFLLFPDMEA
T1 sequence (P02747 29-245 limits assumed, chain 3 of 3): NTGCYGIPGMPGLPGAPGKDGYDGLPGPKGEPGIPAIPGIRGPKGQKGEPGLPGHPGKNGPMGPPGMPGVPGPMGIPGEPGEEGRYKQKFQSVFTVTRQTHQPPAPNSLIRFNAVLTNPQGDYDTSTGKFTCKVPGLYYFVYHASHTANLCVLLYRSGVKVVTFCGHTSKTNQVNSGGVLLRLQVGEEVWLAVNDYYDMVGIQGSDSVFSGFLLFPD
Experimental: In short, microtiter ELISA plates (Greiner, Germany) were coated overnight at RT with the test antibodies serially diluted from 10 μg/ml to 0.06 μg/ml in PBS. Plates were emptied and wells were blocked with 200 μl ELISA-diluent per well (0.1 M NaPO₄, 0.1 M NaCl, 0.1% gelatin and 0.05% Tween-20), at RT for 30 minutes. […] After washing the plates (3×) with PBST, wells were incubated with HRP-conjugated swine anti-rabbit IgG-Fc (DAKO, P0300, lot #069) diluted in ELISA diluent (1:2500, 100 μl/well, RT, 1 hour). Thereafter, plates were washed thrice and assays were developed with freshly prepared 1 mg/ml ABTS solution (ABTS: 2,2′-azino-bis[3-ethylbenzthiazoline-6-sulfonic acid]); 2 tablets of 5 mg in 10 ml ABTS buffer, Boehringer Mannheim, Ingelheim, Germany) at RT in the dark for 30 minutes.

B1: 7D8-HG (antibody)
heavy: EVQLVESGGGLVQPDRSLRLSCAASGFTFHDYAMHWVRQAPGKGLEWVSTISWNSGTIGYADSVKGRFTISRDNAKNSLYLQMNSLRAEDTALYYCAKDIQYGNYYYGMDVWGQGTTVTVSSASTKGPSVFPLAPCSRSTSESTAALGCLVKDYFPEPVTVSWNSGALTSGVHTFPAVLQSSGLYSLSSVVTVPSSSLGTKTYTCNVDHKPSNTKVDKRVAPEFLGGPSVFLFPPKPKDTLMISRTPEVTCVVVDVSQEDPEVQFNWYVDGVEVHNAKTKPREEQFNSTYRVVSVLTVLHQDWLNGKEYKCKVSNKGLPSSIEKTISKAKGQPREPQVYTLPPSQEEMTKNQVSLTCLVKGFYPSDIAVEWESNGQPENNYKTTPPVLDSDGSFFLYSRLTVDKSRWQEGNVFSCSVMHEALHNHYTQKSLSLSLGK
light: not shown
notes: Half-molecule of one heavy and one light chain; also called hingeless IgG4 anti-CD20; IgG4 HG
For the molecule B1, the binding result was “no binding”.
